In patent US20130028888A1 (AERES BIOMEDICAL, published 2013):
Residue numbers refer to the chain shown, from its start. Each block holds one binder with its values, some of them ahead of it.

Assays:
[1] = biological target: T1, human CD22 expressed on the cell surface (human, UniProt P20273 20-847); assay: cell ELISA on BHK cells expressing human CD22, COS-7 supernatant, OD 655 nm
T1 construct: whole, on cells; One entry covers all cell-surface formats (BHK-CD22, CHO, COS, Daudi, human B cells); also called hCD22; BHK-CD22

[2] = biological target: T1, human CD22 expressed on the cell surface; assay: cell ELISA on BHK cells expressing human CD22, OD 655 nm
[3] = biological target: T1, human CD22 expressed on the cell surface; assay: BHK-CD22 cell ELISA
[4] = biological target: T1, human CD22 expressed on the cell surface; assay: cell ELISA on BHK cells expressing human CD22, goat anti-mouse Ig-HRP, OD 450 nm
Excerpt: The BHK-CD22 binding assay was used to test the binding activity of the chHB227 antibody in the transiently transformed COS 7 culture supernatants. A goat anti-human Ig-HRP conjugate (Sigma Chemicals) was used to detect binding of chHB22.7 mAb while a goat anti-mouse Ig-HRP conjugate (Southern Biotechnology) was used to detect binding of the parental mouse HB22.7 mAb. The bound HRP conjugates were exposed to the substrate o-phenyldiamine (OPD) and the resulting products detected at 450 nm.

B2: HB227RHC heavy chain + chimeric HB22.7 light chain (chL) (antibody, human IgG1, V domains shown)
VH: QVQLQESGPALVKPTQTLTLTCTFSGFSLSDYGVNWIRQPPGKALEWLGIIWGDGRTDYNSALKSRLSISKDNSKNQVVLRMTNVDPVDTATYFCARAPGNRAMEYWGQGTVVTVSS
VL: SIVMTQTPKFLLVSAGDRITLTCKASQSVTNDVAWYQQKPGQSPKLLIYYASNRYTGVPDRFTGSGYGTDFTFTISTVQAEDLAVYFCQQDYRSPWTFGGGTKLEI
notes: Human IgG1/kappa constants; COS-7 supernatant; also called RHC+chL
- fold binding relative to chimeric light chain with HB227RHB [3]: ~2 fold

B4: HB227RHF heavy chain + chimeric HB22.7 light chain (chL) (antibody, human IgG1, V domains shown)
VH: B2 VH with F24V
VL: B2 VL
notes: Human IgG1/kappa constants; COS-7 supernatant; also called HB227RHF+chL; RHF+chL
- EC50 (read off the curve) [1]: ~0.1 µg/mL

Now from value to binder:

- EC50 (read off the curve) [1]: ~0.1 µg/mL
- EC50 (read off the curve) [2]: ~0.3 µg/mL
B1: chimeric HB22.7 antibody chHB227 (chH + chL) (antibody, human IgG1, V domains shown)
VH: QVQLKESGPGLVAPSQSLSITCTVSGFSLSDYGVNWVRQIPGKGLEWLGIIWGDGRTDYNSALKSRLNISKDNSKSQVFLKMNSLKADDTARYYCARAPGNRAMEYWGQGTSVTVS
VL: B2 VL
notes: Mouse HB22.7 variable regions on human IgG1 and kappa constant regions (vectors pG1D20, pKN10); Transient COS-7 supernatant; also called CH+CK; fully chimeric antibody

- EC50 (read off the curve) [4]: ~0.08 µg/mL
B3: parental mouse monoclonal anti-CD22 antibody HB22.7 (antibody, V domains shown)
VH: B1 VH
VL: B2 VL
notes: Mouse hybridoma antibody (ATCC HB11347); Labelled with Alexa-fluor 488 or 647 in some cell assays; also called murine HB22.7; mouse HB22.7

- EC50 (read off the curve) [1]: ~0.2 µg/mL
B5: humanized antibody HB227RHF + HB227RKC (antibody, human IgG1, V domains shown)
VH: B2 VH with F24V
VL: DIVMTQSPSSLSASVGDRVTITCKASQSVTNDVAWYQQKPGKAPKLLIYYASNRYTGVPDRFSGSGYGTDFTLTISSLQPEDFATYFCQQDYRSPWTFGGGTKVEIKR
notes: Human IgG1/kappa constants; COS-7 supernatant; also called RHF+RKC; humanized (RHF+RKC) antibody
